The supplement of paper PMC9170038

Test system: K4 kissing-loop RNA reporter
Assay: apparent KD of K4 kissing-loop reporter; higher = weaker reporter binding
Conditions: Eterna round: R107
Method: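 RNA-MaP round R107: designed RNA switches with theophylline, tryptophan, arginine or FMN aptamers are transcribed on-chip within common flanks. They are titrated with a labelled K4 kissing-loop RNA reporter in RNA-MaP buffer (100 mM Tris pH 7.5, 80 mM KCl, 4 mM MgCl2), without ligand or with the indicated ligand. Median apparent KD per design.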

[1] = input ligand: theophylline 20 uM
[2] = input ligand: tryptophan 2.4 mM
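Note: bound reporter read as fluorescence of individual clusters on recovered sequencing chips by microscopy, with normalized cluster intensities fitted with a binding model.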

Row | Sequence | apparent KD of K4 kissing-loop reporter (input ligand: FMN 200 uM) [µM] | apparent KD of K4 kissing-loop reporter (input ligand: arginine 13.2 mM) [µM] | apparent KD of K4 kissing-loop reporter (input ligand: none) [µM] | apparent KD of K4 kissing-loop reporter [1] [µM] | apparent KD of K4 kissing-loop reporter [2] [µM]
1 | UUGUAUAGUGGAAGGAGCGCGUGGGCGCAGUGAUGUUGCGCCCGACAUCACUUCAACUUAACGCAGGUAGGUCGCCAUUGUAAUG [Arginine B (Excl) V5] | 0.131 | 0.088 | 0.113 | 0.104 | 0.101
2 | UUUAAAUAUAGUGAUGUUAUAUAACAAUGACGAGGACCGGUACGGCCGCCACUCGAGAGAGAUAAUGGUCAUACAAAUGUAUGUC [AstrosSSTryA#7] | 0.799 | 0.706 | 1.1 | 0.83 | 0.564
3 | UUUAACGAGUGAUGUUCGAAAAGUAAUGGUGAGGAUAUCGAUUUUUCGAGAAGGCACCUCGAAGUGAUACGAAAGUAUCGCUUCG [FMN A 4] | 0.173 | 0.276 | 0.261 | 0.257 | 0.199
4 | UUUCCAGAUAAGUGGGAACACUCCAUAACAGAGGAUAUCAGAGCGCUGAGAAGGCUGUUUAUCAGUGAUGUUGAUAGUGUGGAGU [FMN A SS t2a] | 0.171 | 0.66 | 0.671 | 0.786 | 0.63
5 | UUUCCAGAUAAGUGGGAACGCUCCAUAACAGAGGAUAUCAGAGCGCUGAGAAGGCUGUUUUACAGUGAUGUUGUAAGUGUGGAGC [#10 K4 FMN A Same State] | 0.158 | 0.272 | 0.299 | 0.283 | 0.252
6 | UUUGGUUUCUCGGCCGCCACUCGUUGGUAAUGGGCCUCAGGGAUAUAGUGAUGUUAUGUAAAGAAGAGGACCGGGAGAAGGAAGG [ExTryptoB.Dn] | 0.235 | 0.229 | 0.303 | 0.267 | 0.156
7 | UUUGGUUUCUCGGCCGCCACUCGUUGGUUAUGGGCUUCAGGGAUAUAGUGAUGUUAUGUAUAGAAGAGGACCGGGAGAAGGUUUU [ExTryptoB.Du] | 0.215 | 0.368 | 0.33 | 0.434 | 0.239
8 | UUUGUAGAGGGAAGGAGCGUGAAAGAGAAAGAAUAUAGUGAUGUUAUAUAGAAGAAAGAAUCACAGGUAGGUCGCCCGGAGGAGG [SSArgB.E] | 0.463 | 0.436 | 0.458 | 0.563 | 0.295
9 | UUUGUAGUGGGAGGAUAUCCUAAUAUGGGUGAUGUUAGCGAUGUUGAAGGUGUAGUGAUGUUAUGCGGAGAAGGCCCACUGUAGA [BDazzled - #20 - Exc. FMN B] | 0.543 | 0.221 | 0.189 | 0.614 | 0.253
10 | UUUUAAAUGUCUGAUACCAGAGAAAAUAUAUGUAGUGAUGUUAUAUACAAAAUAAAUAAGCUCCCUUGGCAGCAGUAUUAAUUUU [AstrosExc-TheB#6] | 0.679 | 0.632 | 0.863 | 0.725 | 0.529
11 | UUUUAUAACCGAAGGAGCGCGUGGGCGCAGUGAUGUUGCGCCCGACAUCACUUCAACUUAACGCAGGUAGGUCGCGGUUUUAAUG [Arginine B (Excl) V3] | 0.148 | 0.147 | 0.181 | 0.163 | 0.168
12 | UUUUAUUCGUACUUCUAGUGAUGUUAGAUUCGAGGACCGGUACGGCCGCCACUCGUUAAGGCGAUUUUAUAUUUUUUAUUCUUUA [JR_SSTryptoA_Sub012] | 0.182 | 0.165 | 0.179 | 0.165 | 0.138
13 | UUUUGGUACUGAGGAUAUUCGACGAAAUAUAGUGAUGUUAUAUAAGGAGGAGGAGGGUGGGAGGAAGGAGAAGGCAGAAGAGGAG [#06 K4 FMN B Exclusion] | 0.285 | 0.179 | 0.238 | 0.285 | 0.185
14 | UUUUUAUGCAGUGAUGUUGCUAAUAUAACAGAGGAUAUGCAUUAAUGCAGAAGGCUGAAAUACUAUACUUUAAUAAAUUAAAUUU [JR_SSFMNA_Sub014] | 0.0899 | 0.109 | 0.0855 | 0.134 | 0.085
15 | UUUUUGGAGAAUUAUAGUGAUGUUAUGAAGGAGGAUAUCUGGAGAUGGAGAAGGCCUAGUGGCUCAGCCCUCGCGGGUGGGUGGG [ExFMNA.aD] | 0.667 | 0.518 | 0.456 | 0.53 | 0.426
